# Measurements reported in patent US7335638B2, “Prevention and treatment of mycoplasma-associated diseases” (priority 2000, dated 2008).
# Test system: adenocarcinoma of Walker
# Experiment: Treatment of experimental adenocarcinoma in rats (Walker tumor)
# Type: in vivo, rat
# Details: both died after 12 days of treatment; prolactine added to TS, PDTC and plant extract
# Text: Malignant neoplasia was induced experimentally by inoculation of 500,000 cells of adenocarcinoma of Walker in the right flank of several rats in order to verify if the use of simultaneous anti-proliferative and anti-oxidative drugs may decrease the growing of the neoplasia and the level of metastases. Usually the animals receiving such inoculation of adecarcinoma cells survived for 10-12 days and presented metastasis to many ganglia, liver and lung. Nine of these animals were inoculated after 7 days of tumor cells with 0.5 ml of trans-sialidase TS (supernatant of culture of T. cruzi) as described in the U.S. patent application Ser. No. 10/086,913, filed Mar. 1, 2002 and with 0.75 mg of PDTC, into the peritoneum every day. The particles containing DNA or RNA prepared from plant extracts (garlic, Ginkgo biloba and tomato) as described above was also administered. All animals received 0.5 ml of garlic extract by subcutaneous route (Table 1 below). The tumors were similar in size for all animals at the beginning of the treatment, i.e. 2.8×2.7 cm.
# Rats 1-4 were followed until death. Rats 3 and 4 received 0.5 ml of Ginkgo biloba's extract, every day. The tumors increased slower in all 4 animals receiving plant extracts than the controls. […]
# Prolactin and/or growth hormone administration to diminish these effects was also evaluated. […]
molecule,measurement,value
"prolactine: ovine prolactine from Sigma, neuroendocrine hormone (protein, UniProt P01240 31-229, looked up) Prolactin: TPVCPNGPGNCQVSLRDLFDRAVMVSHYIHNLSSEMFNEFDKRYAQGKGFITMALNSCHTSSLPTPEDKEQAQQTHHEVLMSLILGLLRSWNDPLYHLVTEVRGMKGVPDAILSRAIEIEEENKRLLEGMEMIFGQVIPGAKETEPYPVWSGLPSLQTKDEDARHSAFYNLLHCLRRDSSKIDTYLKLLNCRIIYNNNC","tumor at necropsy, Rat 4 compared with Rat 1",smaller size of the tumor with less microscopic necrosis
